Experimental data published in patent publication US20200283507A1 (US Dept. of Health and Human Services, published 2020).
No end group written: not given here.

Columns and labels:
[1] = molecular target: T1, Hu/NoV/GII.1/Hawaii/1971/U.S. VLP (human norovirus GII.1); test: VLP ELISA
T1 construct: mature; baculovirus VLP; VP2 may be present

[2] = molecular target: T2, Hu/NoV/Snow Mountain/GII.2/U.S. VLP (human norovirus GII.2); test: VLP ELISA
T2 construct: mature; baculovirus VLP; VP2 may be present

[3] = molecular target: T3, Hu/NoV/GII.2/Henryton/1971/U.S. VLP (human norovirus GII.2); test: VLP ELISA
T3 construct: mature; baculovirus VLP; VP2 may be present

[4] = molecular target: T4, Hu/NoV/GII.3/CHDC4031/1988/U.S. VLP (human norovirus GII.3); test: VLP ELISA
T4 construct: mature; baculovirus VLP; VP2 may be present

[5] = molecular target: T5, Hu/NoV/GII.4/CHDC4871/1977/U.S. VLP (human norovirus GII.4); test: VLP ELISA
T5 construct: mature; baculovirus VLP; VP2 may be present

[6] = molecular target: T6, Hu/NoV/GII.4/RockvilleD1/2012/U.S. VLP (human norovirus GII.4); test: VLP ELISA
T6 construct: mature; baculovirus VLP; VP2 may be present

[7] = molecular target: T7, Hu/NoV/GII.4/MD2004/2004/U.S. VLP (human norovirus GII.4); test: VLP ELISA
T7 construct: mature; baculovirus VLP; VP2 may be present; also called MD2004 VLP

[8] = molecular target: T8, Hu/NoV/GII.4/MD145-12/1997/U.S. VLP (human norovirus GII.4); test: VLP ELISA
T8 construct: mature; baculovirus VLP; VP2 may be present

[9] = molecular target: T9, Hu/NoV/GII.4/HS-191/2001/U.S. VLP (human norovirus GII.4); test: VLP ELISA
T9 construct: mature; baculovirus VLP; VP2 may be present

[10] = molecular target: T10, Hu/GII.6/Bethesda/2012/U.S. VLP (human norovirus GII.6); test: VLP ELISA
T10 construct: mature; baculovirus VLP; VP2 may be present

[11] = molecular target: T11, Hu/NoV/GII.7/DC119/U.S. VLP (human norovirus GII.7); test: VLP ELISA
T11 construct: mature; baculovirus VLP; VP2 may be present

[12] = molecular target: T12, Hu/NoV/GII.14/M7/1999/U.S. VLP (human norovirus GII.14); test: VLP ELISA
T12 construct: mature; baculovirus VLP; VP2 may be present

[13] = molecular target: T8, Hu/NoV/GII.4/MD145-12/1997/U.S. VLP; test: cell-based or functional assay
[14] = molecular target: T13, Toronto VP1 peptide 512-528 (NoV Toronto strain, also: biotinylated (position not given here)); test: ELISA on biotinylated peptide
T13 construct: 17-mer of the P domain peptide library, captured on neutravidin plates
T13 peptide: GYFRFESWVNPFYTLAP
Experimental: (§1) For this assay, a peptidic library of 67 peptides corresponding to the P domain of the VP1 amino acid sequence from NoV Toronto strain was synthetized. The peptides were 17 amino acids long, with 5 amino acids overlapping with the previous and the next peptide of the sequence. Neutravidin coated plates (PIERCE®) were used for this assay. The plates were coated with each biotinylated peptide in duplicates (2 μl of peptide/100 μl of PBS 0.1% BSA per well) overnight at 4° C. Then, after washing the plates, 100 ng/well of 7.5 VHH were added and the plates were incubated for 2 hours at room temperature. The plates were washed and incubated with rabbit anti-VHH serum (1/8,000) and HRP-conjugated goat anti-rabbit immunoglobulin G (1:2,000) (KPL). The signal was developed with ABTS/H₂O₂.

[15] = molecular target: T14, Toronto VP1 peptide 517-533 (NoV Toronto strain, also: biotinylated (position not given here)); test: ELISA on biotinylated peptide
T14 construct: 17-mer of the P domain peptide library
T14 peptide: ESWVNPFYTLAPMGTGN
Experimental: as §1

[16] = molecular target: T15, Toronto VP1 peptide 507-523 (NoV Toronto strain, also: biotinylated (position not given here)); test: ELISA on biotinylated peptide
T15 construct: 17-mer of the P domain peptide library
T15 peptide: TVPPNGYFRFESWVNPF
Experimental: as §1

[17] = molecular target: T16, Toronto VP1 peptide 522-538 (NoV Toronto strain, also: biotinylated (position not given here)); test: ELISA on biotinylated peptide
T16 construct: 17-mer of the P domain peptide library
T16 peptide: PFYTLAPMGTGNGRRRI
Experimental: as §1

B1: VHH 7.5 (VHH)
VHH: QVKLQESGGGLVQAGESLRLSCAASGSNFSINGVGWYRQAPGKQRELVAGITNGGYTSYADSVKGRFTISTDNAKNTVYLQMNSLRPEDTAVYYCNANFQIHRSGADYVRNYWGQGTQVTVSA
notes: llama VHH, MD2004 library; pHEN6, C-terminal His6 tag; also called clone 7.5
**Q.** B1 was tested. Which “minimum concentration of VHH able to recognize 100 ng of VLP” value (shortened to “minimum concentration of VHH able”) [1] did it give?
**A.** The value was 1 ng/well.

**Q.** And the “minimum concentration of VHH able” value [2]?
**A.** The value was 2 ng/well.

**Q.** What about the “minimum concentration of VHH able” value [3] of the same binder?
**A.** Its value is 1 ng/well.

**Q.** What about the “minimum concentration of VHH able” value [4] of the same binder?
**A.** Its value is 1 ng/well.

**Q.** And the “minimum concentration of VHH able” value [5]?
**A.** Its value is 2 ng/well.

**Q.** And the “minimum concentration of VHH able” value [6]?
**A.** Its value is 0.5 ng/well.

**Q.** And the “minimum concentration of VHH able” value [7]?
**A.** The value was 0.5 ng/well.

**Q.** And the “minimum concentration of VHH able” value [8]?
**A.** Its value is 0.5 ng/well.

**Q.** And the “minimum concentration of VHH able” value [9]?
**A.** Its value is 2 ng/well.

**Q.** What about the “minimum concentration of VHH able” value [10] of the same binder?
**A.** Its value is 1 ng/well.

**Q.** What about the “minimum concentration of VHH able” value [11] of the same binder?
**A.** Its value is 1 ng/well.

**Q.** And the “minimum concentration of VHH able” value [12]?
**A.** Its value is 1 ng/well.

**Q.** And the “HAI titer, B Rh+ RBC” value [13]?
**A.** The value was 0.78 µg/mL.

**Q.** Does B1 bind [14]?
**A.** Result: binds

**Q.** Does B1 bind [15]?
**A.** Result: binds

**Q.** Does B1 bind [16]?
**A.** Result: no binding (tested: 100 ng/well)

**Q.** Does B1 bind [17]?
**A.** Result: no binding (tested: 100 ng/well)
